Values belong to the molecule of their own block, whether it stands above or below them.
Test system: Chk1
Assay: Chk1 kinase activity of enzyme preparations, ADP production coupled through pyruvate kinase and lactate dehydrogenase (Syntide-2 substrate)
Type: biochemical, human
Conditions: for Rate/min: prep concentration 75 nM (HA2-013), 2 nM (HA2-022), 7.3 nM (HB2-061), 0.125 mM Syntide-2, 0.15 mM ATP; for Activity: relative to full length Chk1 (control = 1)
Procedure: The kinase activity of the hChk1 was determined by monitoring the ADP production through enzymatic actions of pyruvate kinase and lactate dehydrogenase. […] Unlike the other forms of Chk1 which have proven difficult to work with (isolate, purify, crystallize, etc), the 1-289 kinase domain form of the human Chk1 enzyme facilitated crystallography, enzyme characterization, and high throughput screening of inhibitors. In particular, the Chk1 kinase domain was used to determine its 3-dimensional structure, which provides unique structural information for inhibitor design for therapeutic development.
The enzymatic activity of a kinase is measured by its ability to catalyze the transfer of a phosphate residue from a nucleoside triphosphate to an amino acid side chain in a selected protein target. The conversion of ATP to ADP generally accompanies the catalytic reaction. Herein, a synthetic substrate peptide, Syntide-2, having amino acid sequence PLARTLSVAGLPGKK (SEQ ID NO. 11) was utilized. The production of ADP from ATP that accompanies phosphoryl transfer to the substrate was coupled to oxidation of NADH using phosphoenolpyruvate (PEP) through the actions of pyruvate kinase (PK) and lactic dehydrogenase (LDH). The oxidation of NADH was monitored by following the decrease of absorbance at 340 nm (e340=6.22 cm−1 mM−1) using a HP8452 spectrophotometer. Typical reaction solutions contained: 4 mM PEP, 0.15 mM NADH, 28 units of LDH/mL, 16 units of PK/mL, 3 mM DTT, 0.125 mM Syntide-2, 0.15 mM ATP and 25 mM MgCl2 in 50 mM TRIS pH 7.5; 400 mM NaCl. Assays were initiated with 10 nM of kinase domain of Chk1, KH289. Ki values were determined by measuring initial enzyme activity in the presence of varying concentrations of inhibitors. The data were analyzed using Enzyme Kinetic and Kaleidagraph software.
The table below (Table 3) compares three different preparations of Chk1. The first preparation is the full length form, which comprises amino acids 1-476 of SEQ ID NO. 2. The next preparation contains proteolytically cleaved fragments, a mixture of Chk1 protein fragments obtained from the full-length protein during fermentation. The exact enzymes involved and cleavage site generated for these fragments is unknown. […] The third preparation is the kinase domain of amino acids 1-289 of SEQ ID NO. 2 (KH289) As mentioned above, the assay used detects the ADP product by coupling through the enzymatic actions of pyruvate kinase and lactate dehydrogenase.

Chain of Chk1 (O14757 9-265 limits assumed): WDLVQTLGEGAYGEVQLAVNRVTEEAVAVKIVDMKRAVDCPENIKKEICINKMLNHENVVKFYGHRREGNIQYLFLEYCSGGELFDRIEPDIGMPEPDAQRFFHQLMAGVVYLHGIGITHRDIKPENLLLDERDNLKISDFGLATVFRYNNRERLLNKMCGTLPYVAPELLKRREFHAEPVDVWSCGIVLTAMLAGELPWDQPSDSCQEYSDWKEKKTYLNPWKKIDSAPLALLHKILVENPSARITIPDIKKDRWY

Rate/min: 0.0190 | Activity: 1 (control) fold
B1: HA2-013: preparation of the full length form of human Chk1, amino acids 1-476 of SEQ ID NO. 2 (protein, listed as Homo sapiens)
chain: MAVPFVEDWDLVGTLGEGAYGEVQLAVNRVTEEAVAVKIVDMKRAVDCPENIKKEICINKMLNHENVVKFYGHRREGNIQYLFLEYCSGGELFDRIEPDIGMPEPDAQRFFHQLMAGVVYLHGIGITHRDIKPENLLLDERDNLKISDFGLATVFRYNNRERLLNKMCGTLPYVAPELLKRREFHAEPVDVWSCGIVLTAMLAGELPWDQPSDSCQEYSDWKEKKTYLNPWKKIDSAPLALLHKILVENPSARITIPDIKKDRWYNKPLKKGAKRPRVTSGGVSESPSGFSKHIQSNLDFSPVNSASSEENVKYSSSQPEPRTGLSLWDTSPSYIDKLVQGISFSQPTCPDHMLLNSGLLGTPGSSQNPWQRLVKRMTRFFTKLDADKSYQCLKETCEKLQYQWKKSCMNQVTISTTDRRNNKLIFKVNLLEMDDKILVDFRLSKGDGLEFKRHFLKIKGKLIDIVSSQKVWLPAT

B2: KH289: human Chk1 kinase domain (AA 1-289), C-terminal 6xHis-tag (protein)
chain: MAVPFVEDWDLVGTLGEGAYGEVQLAVNRVTEEAVAVKIVDMKRAVDCPENIKKEICINKMLNHENVVKFYGHRREGNIQYLFLEYCSGGELFDRIEPDIGMPEPDAQRFFHQLMAGVVYLHGIGITHRDIKPENLLLDERDNLKISDFGLATVFRYNNRERLLNKMCGTLPYVAPELLKRREFHAEPVDVWSCGIVLTAMLAGELPWDQPSDSCQEYSDWKEKKTYLNPWKKIDSAPLALLHKILVENPSARITIPDIKKDRWYNKPLKKGAKRPRVTSGGVSESPSGHHHHHH
enzymatic activity compared with the full length protein (ADP production via pyruvate kinase and lactate dehydrogenase): higher enzymatic activity than the full length protein

Rate/min: 0.0200 | Activity: +10 fold
B3: HB2-061: preparation of the kinase domain of amino acids 1-289 of SEQ ID NO. 2 (KH289) (protein, listed as Homo sapiens)
chain: MAVPFVEDWDLVGTLGEGAYGEVQLAVNRVTEEAVAVKIVDMKRAVDCPENIKKEICINKMLNHENVVKFYGHRREGNIQYLFLEYCSGGELFDRIEPDIGMPEPDAQRFFHQLMAGVVYLHGIGITHRDIKPENLLLDERDNLKISDFGLATVFRYNNRERLLNKMCGTLPYVAPELLKRREFHAEPVDVWSCGIVLTAMLAGELPWDQPSDSCQEYSDWKEKKTYLNPWKKIDSAPLALLHKILVENPSARITIPDIKKDRWYNKPLKKGAKRPRVTSGGVSESPSG
